Laboratory results from US20240218055A1 (US Dept. of Health and Human Services, published 2024).
Like-named read-outs stand apart in the source and are kept apart here.

How the values were obtained:
[1] = target: T1, LASV GP1 subunit protein (Lassa virus, UniProt P08669 59-259); test: BLI
T1 sequence: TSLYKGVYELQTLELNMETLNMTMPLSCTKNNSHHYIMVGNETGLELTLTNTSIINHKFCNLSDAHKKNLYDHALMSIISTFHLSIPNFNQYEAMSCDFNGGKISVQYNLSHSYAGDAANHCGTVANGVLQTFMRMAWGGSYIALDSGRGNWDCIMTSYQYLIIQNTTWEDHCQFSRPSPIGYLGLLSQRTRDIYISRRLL

[2] = target: T2, LASV Josiah GPC on pseudotyped rVSV (Lassa virus (Josiah strain), UniProt P08669 1-491); test: cell-based or functional assay
T2 sequence: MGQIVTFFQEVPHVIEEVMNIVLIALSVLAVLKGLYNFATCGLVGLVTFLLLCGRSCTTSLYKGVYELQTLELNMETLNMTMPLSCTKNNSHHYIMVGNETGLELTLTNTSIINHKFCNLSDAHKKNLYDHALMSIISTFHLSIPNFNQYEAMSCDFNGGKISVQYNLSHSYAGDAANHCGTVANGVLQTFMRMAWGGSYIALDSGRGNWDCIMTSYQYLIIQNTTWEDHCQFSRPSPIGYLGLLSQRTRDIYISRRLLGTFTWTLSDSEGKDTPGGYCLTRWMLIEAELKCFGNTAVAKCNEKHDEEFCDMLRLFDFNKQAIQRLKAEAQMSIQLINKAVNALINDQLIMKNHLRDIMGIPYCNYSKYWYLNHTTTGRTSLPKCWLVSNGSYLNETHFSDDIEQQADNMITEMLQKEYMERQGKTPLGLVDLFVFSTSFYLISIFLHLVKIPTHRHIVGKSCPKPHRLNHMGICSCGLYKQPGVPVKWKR

[3] = target: bovine serum albumin (bovine, UniProt P02769 25-607); test: ELISA, plate coated with BSA
Sequence of bovine serum albumin (P02769 25-607 limits assumed): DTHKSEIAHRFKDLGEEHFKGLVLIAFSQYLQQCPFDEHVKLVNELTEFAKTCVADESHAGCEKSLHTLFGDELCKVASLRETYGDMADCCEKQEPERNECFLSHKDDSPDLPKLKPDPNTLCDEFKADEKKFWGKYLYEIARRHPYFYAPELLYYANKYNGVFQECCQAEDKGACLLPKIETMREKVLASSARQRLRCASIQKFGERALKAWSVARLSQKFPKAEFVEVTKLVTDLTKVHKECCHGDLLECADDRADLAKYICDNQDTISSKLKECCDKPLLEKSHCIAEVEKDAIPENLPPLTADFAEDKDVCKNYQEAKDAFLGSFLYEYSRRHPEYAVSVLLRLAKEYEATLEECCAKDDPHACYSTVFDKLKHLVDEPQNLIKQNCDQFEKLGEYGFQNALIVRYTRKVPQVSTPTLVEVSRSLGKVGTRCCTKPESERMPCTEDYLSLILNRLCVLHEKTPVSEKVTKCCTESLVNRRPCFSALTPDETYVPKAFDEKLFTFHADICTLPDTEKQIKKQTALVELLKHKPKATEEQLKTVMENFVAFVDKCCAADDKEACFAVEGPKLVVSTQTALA

[4] = target: LASV GP2 subunit protein (Lassa virus); test: BLI
[5] = target: T1, LASV GP1 subunit protein; test: BLI; remark: listed apart in the source

B1: shark VNAR A1 (VNAR)
VNAR: ARVDQTPQTITKETGESLTINCVPPDSNCALADTYWYRKKSGSTNEESISKGGRYVPTVNSGSKSFILRINDLRVADSGTYRCKVSCYAAAYYGQQLERLYDVYGGGTAVTVN
Kd [1]: 18.6 nM | neutralization of LASV pseudotyped Josiah virus [2]: < 50% | binding result [3]: no binding (tested: 1 ug/ml (single concentration))

B2: shark VNAR C3 (VNAR)
VNAR: ARVDQTPQTITAETGESLTINCVLRNSDCGLSDTYWFRMSPGSGSEERISIGGRYLETVNSVSKSFSLRINDLTVEDSGRYRCKTDVYRYVSGSGCLYSYFASGAGTVVTVN
binding result [1]: no binding | neutralization of LASV pseudotyped Josiah virus [2]: < 50% | binding result [3]: no binding (tested: 1 ug/ml (single concentration)) | Kd [4]: 10.6 nM | koff [4]: 0.000265 s⁻¹ | kon [4]: 25100 M⁻¹ s⁻¹

B3: camel VHH D5 (VHH)
VHH: AWQLVESGGGSVQPGGSLTLTCQASKSTFSTSGMRWERQAQGKGVEFVADISSDSTRKWYSDSVKGRFTISRSNWWRTVTLQMNDLKPEDTARYYCKDLESHHLRGQGTQVTVSS
Kd [1]: 20.8 nM | Kd [5]: 20.8 nM | kon [5]: 23400 M⁻¹ s⁻¹ | neutralization of LASV pseudotyped Josiah virus [2]: < 50%

B4: shark VNAR A10 (VNAR)
chain: ARVDQTPQTITKETGESLTITCILRDSQCALSPTYWYHKKSGSTKPERIYKGGRYVETVNSGSKSFSLRINDLTVEDSGTFFCKVSGWYAYSCRLEPDGYYDVYGGGTVVTVN
Kd [1]: 22.7 nM | neutralization of LASV pseudotyped Josiah virus [2]: < 50% | binding result [3]: no binding (tested: 1 ug/ml (single concentration))

B5: shark VNAR B10 (VNAR)
VNAR: ARVDQTPQTITKETGESLTINCVLRDSNCPLSSTFWYRADAGSLNEENISKGGRYVETVNSGSKSFSLRINDLTTEDSGTYRCKVAGLPLDCIPARGLELNWREDVYGGGTAVTVN
Kd [1]: 78.6 nM | koff [5]: 0.00414 s⁻¹ | kon [5]: 52700 M⁻¹ s⁻¹ | neutralization of LASV pseudotyped Josiah virus [2]: < 50% | binding result [3]: no binding (tested: 1 ug/ml (single concentration))

B6: shark VNAR B8 (VNAR)
VNAR: ARVDQTPQTVTKETGESLTINCVLRDSNCALPSTYWYRKKSGSTNEENISKGGRYVETVNSGSKSFSLRINDLRPEDSGTYRCKVHGLPLDCIPARGLELNWREDVNGGGTAVTVN
Kd [1]: 15.9 nM | koff [5]: 0.00236 s⁻¹ | kon [5]: 149000 M⁻¹ s⁻¹ | neutralization of LASV pseudotyped Josiah virus [2]: < 50% | binding result [3]: no binding (tested: 1 ug/ml (single concentration))

B7: bivalent single domain antibody D5 in IgG2a format (Fc fusion)
chain 1: AWQLVESGGGSVQPGGSLTLTCQASKSTFSTSGMRWERQAQGKGVEFVADISSDSTRKWYSDSVKGRFTISRSNWWRTVTLQMNDLKPEDTARYYCKDLESHHLRGQGTQVTVSSAAAEPKIPQPQPKPQPQPQPQPKPQPKPEPECTCPKCP
chain 2: B7 chain 1
IC50, neutralization of Josiah pseudovirus [2]: 12 µg/mL
